In the nanobody polyreactivity screen of Harvey et al. (2022):

Assay: yeast display, Sf9 membrane polyspecificity reagent, FACS + sequencing; frameworks hold sequencing errors
In short: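 Sorting gates, low and high (top ~1%), were placed on anti-HA fluorescence to track expression and on streptavidin fluorescence to track reagent binding. A clone's polyreactivity label is taken from the gate it came out of. The reagent was 10% biotinylated, detergent-solubilized Sf9 membrane, applied for 1 hour at 4 °C to galactose-induced yeast display cells.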

| Sequence | polyreactivity (PSR sort gate) |
| --- | --- |
| QVQLVESGGGLVQAGGSLRLSCAASGSTFYHNAMGWYRQAPGKERELVAAMTWSGSRTYYADSVKGRFTISRDNAKNTVYLQMNSLKPEDTAVYYCAARDYWGQGTQVTVSS | high polyreactivity |
| QVQLVESGGGLVQAGGSLRLSCAASGYTFGIYAMGWYRQAPGKAREFVAAIRWSDTSTSYADSVKWRFTISRDNAKNTVYLQMNSLKPEDTAVYNCAADTFYLYDYWGQGTQVTVSS | low polyreactivity |
| QVQLVESGGGLVQAGGSLRLSCAASGSIFRYYVMGWYRQAPGKERELVASITGSGGSTYYADSLKGRFTISRDNAKNTVYLQMNSLKPEDTAVYYCAASYRMRYGYWGQGTQVTVSS | high polyreactivity |
| QVQLVESGGGLDQAGGSLRLSCAASGSTFKPNVMGWYRQAPGEERELVAAISSRGGRTYYADSVKGRFTISRDNEKNNVYLQMNRLKPEDTAVYYCAALYLATGVDKAFDSWGQGTQVTVSS | high polyreactivity |
| QVQLVESGGGLVQAGGSLRLSCAASGSIFRSNAMGWYRQAPGKERELVAAISSSGGSTYYADSVKGRFTISRDNAKNTVYLQMNSLKPEDTAVYYCNTSVDRGLGYWGQGTQVTVSS | low polyreactivity |
| QVQLVESGGVLVQAGGSLRLSCAASGIIYYGYAMGWYRQAPRKERELVAAISRSGGSTYYADSVKGRFTISRDNAMNTVYFLMNSLKPEDTAVYYCAALVRTTSSYRYNFWGQGTQVTVSS | high polyreactivity |
| QVQLVESGGGLDQAGGSLRLSCAASGSTFKWNAMGWYRQAPGKERELVAAISKGSVNTYYADSVKGRFTISRDNAKNTVYLQMNSLKPEDTAVYYCAADRRYPALDYWGQGTQVTVSS | high polyreactivity |
| QVQLVESGGGLVQAGGSLRLSCAASGSTFCGYAMGWSRQAPGKEREFVATISISGGSTYYADSVKGRFTISRDNAKNTVYLQMNSLKPEDTAVYYCNADYYFSWGSIEDYWGQGTQVTVSS | low polyreactivity |
| QVQLVESGGGLVQAGGSLRLSCAASGSTFQYYAMGWYRQAPGKEGELVATINSGGSTNYADSVKGRFTISRDNAKNTVYLQMNSLKPEDTAVYYCARRVRYKHYDYWGQGTQVTVSS | high polyreactivity |
| QVQLVESGGGLVQAGGSLRLSCAASGIIFAIYAMGWYRQAPGKESELVAAITWRGGSTYYADSVKGRFTISRDNAKNTVYLQRNSLKPEDTAVYYCDAVTKSLYGYDYWGQGSQVTVSS | low polyreactivity |
| QVQLVESGGGLVQAGGTLRLSCAATGSIFPGNAMGWYRPAPGKERELVAAISGRGGSTYYADSVKGRFTISRDNAKNTVYVQMNSLKPEDTAVYYCAAAPVYRPRDSYDKHRHYYWGQCTQVTVSS | high polyreactivity |
| QVQLVESGGGLVQAGGSLRLSCAASGRIFASYAMGWYRQAPGKERELVAAISWGDDSTYYADSVKGRFTISRDNAKNTVYLQMNSLKPEDTAVYYCAAAFWFGPYRLYYWGQGTQVTVSS | high polyreactivity |
| QVQLVESGGGLVKAGGSLRLSCAASGSIFYSYAMGWYRQAPGKERELVAAITDSGDSTYYADSVKGRFTISRDYAKNTVYLQMNSLKPEDTAVYYCAAGFYPYYYWGLGTQVTVSS | low polyreactivity |
| QVQLVESGGGLVQAGGSLRLSCAASGFNFDWYAMGWYRQAPGKERELVAAISASGGRTYYADSVKGRFTISRDNAKNTVYLQMNSLKPEDTAVYYCNKYYLVKGPYDWGQGTQVTVSS | high polyreactivity |
| QVQLVESGGGLVQAGGSLRISCDPSGSTFGQYAMGSYRQAPGKERELVAAINWNGGSTYYADSVKGRFTISRDNAKNTVYLQMNSLKPEDTAVYYCAADPVYYDFDYWGQGTQVTVSS | low polyreactivity |
| QVQLVESGGRLVQAGGSLRLSCAASGRIFTGYAMGWYRQAPGKERELVAAISSRGGSTYYADYVKVRFTISRDNAKNTVYLQMNSLKPEDTAVYYCNAYQWRHRYTMYYWGQGTQVTVSS | high polyreactivity |
| QVQLVESGGGLVQAGGSLRLSCAASGRIFVYNAMGWYRQAPGKERELVAAITYSVDSTYYADSVKGRFTISRDNAKNTVYLQMNSLKPEDTAVYYCAADDFHYVIHAYYSSGVDYWGQGTQVTVSS | low polyreactivity |
